Article PMC9400332

B1: Cedar virus fusion protein F (CedV F): g2 (protein)
parent chain: MSNKRTTVLIIISYTLFYLNNAAIVGFDFDKLNKIGVVQGRVLNYKIKGDPMTKDLVLKFIPNIVNITECVREPLSRYNETVRRLLLPIHNMLGLYLNNTNAKMTGLMIAGVIMGGIAIGIATAAQITAGFALYEAKKNTENIQKLTDSIMKTQDSIDKLTDSVGTSILILNKLQTYINNQLVPNLELLSCRQNKIEFDLMLTKYLVDLMTVIGPNINNPVNKDMTIQSLSLLFDGNYDIMMSELGYTPQDFLDLIESKSITGQIIYVDMENLYVVIRTYLPTLIEVPDAQIYEFNKITMSSNGGEYLSTIPNFILIRGNYMSNIDVATCYMTKASVICNQDYSLPMSQNLRSCYQGETEYCPVEAVIASHSPRFALTNGVIFANCINTICRCQDNGKTITQNINQFVSMIDNSTCNDVMVDKFTIKVGKYMGRKDINNINIQIGPQIIIDKVDLSNEINKMNQSLKDSIFYLREAKRILDSVNISLISPSVQLFLIIISVLSFIILLIIIVYLYCKSKHSYKYNKFIDDPDYYNDYKRERINGKASKSNNIYYVGD
B2: Cedar virus fusion protein F (CedV F): g3 (protein)
parent chain: B1 parent chain
B3: Cedar virus fusion protein F (CedV F): g6 (protein)
parent chain: B1 parent chain
B4: Cedar virus fusion protein F (CedV F): g4 (protein)
parent chain: B1 parent chain
B5: Cedar virus fusion protein F (CedV F): g1 (protein)
parent chain: B1 parent chain

Conditions: glycan lost

Row | Protein | localisation_or_trafficking | other: cell-cell fusion activity | other: cell-cell fusion activity, fold_change | other: proteolytic processing | expression_or_secretion
1 | B1 | increases | decreases | decreases | no change | 
2 | B2 | decreases |  |  | no change | 
3 | B3 | decreases |  |  | no change | 
4 | B4 |  |  |  |  | no change
5 | B5 | decreases |  |  |  | no change
